According to IntAct's records for PubMed 31063459:

B1: Dynamin-1-like protein (Mus musculus), Q8K1M6-3 (parent)
chain: MEALIPVINKLQDVFNTVGADIIQLPQIVVVGTQSSGKSSVLESLVGRDLLPRGTGVVTRRPLILQLVHVSPEDKRKTTGEENGVEAEEWGKFLHTKNKLYTDFDEIRQEIENETERISGNNKGVSPEPIHLKVFSPNVVNLTLVDLPGMTKVPVGDQPKDIELQIRELILRFISNPNSIILAVTAANTDMATSEALKISREVDPDGRRTLAVITKLDLMDAGTDAMDVLMGRVIPVKLGIIGVVNRSQLDINNKKSVTDSIRDEYAFLQKKYPSLANRNGTKYLARTLNRLLMHHIRDCLPELKTRINVLAAQYQSLLNSYGEPVDDKSATLLQLITKFATEYCNTIEGTAKYIETSELCGGARICYIFHETFGRTLESVDPLGGLNTIDILTAIRNATGPRPALFVPEVSFELLVKRQIKRLEEPSLRCVELVHEEMQRIIQHCSNYSTQELLRFPKLHDAIVEVVTCLLRKRLPVTNEMVHNLVAIELAYINTKHPDFADACGLMNNNIEEQRRNRLARELPSAGSRDKVPSAGGGIGDGGQEPTTGNWRGMLKTSKAEELLAEEKSKPIPIMPASPQKGHAVNLLDVPVPVARKLSAREQRDCEVIERLIKSYFLIVRKNIQDSVPKAVMHFLVNHVKDTLQSELVGQLYKSSLLDDLLTESEDMAQRRKEAADMLKALQGASQIIAEIRETHLW

Legend:
arp3_human ACTR3, P61158 = variants of: B1; details: with arp3_human ACTR3, P61158
cof1_human CFL1, P23528 = variants of: B1; details: with cof1_human CFL1, P23528
Sequence of cof1_human CFL1, P23528 (P23528 whole entry): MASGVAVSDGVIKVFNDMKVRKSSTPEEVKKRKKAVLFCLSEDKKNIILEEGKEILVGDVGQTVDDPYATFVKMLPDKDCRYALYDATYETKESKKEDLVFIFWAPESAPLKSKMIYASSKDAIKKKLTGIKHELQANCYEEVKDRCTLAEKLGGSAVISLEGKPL

| effect of a mutation on the interaction (arp3_human ACTR3, P61158) | effect of a mutation on the interaction (cof1_human CFL1, P23528) | Variant |
| --- | --- | --- |
| increasing interaction strength | increasing interaction strength | S600D |
| decreasing interaction strength | decreasing interaction strength | S600A |
